Test results as given in patent publication US20230144203A1 (SHANGHAI SENHUI MEDICINE CO., LTD., priority 2020, published 2023).

T1: huTROP-2 protein (His27-Thr274 Accession #NP_002344.2) (human, UniProt P09758 27-274)
T1 sequence: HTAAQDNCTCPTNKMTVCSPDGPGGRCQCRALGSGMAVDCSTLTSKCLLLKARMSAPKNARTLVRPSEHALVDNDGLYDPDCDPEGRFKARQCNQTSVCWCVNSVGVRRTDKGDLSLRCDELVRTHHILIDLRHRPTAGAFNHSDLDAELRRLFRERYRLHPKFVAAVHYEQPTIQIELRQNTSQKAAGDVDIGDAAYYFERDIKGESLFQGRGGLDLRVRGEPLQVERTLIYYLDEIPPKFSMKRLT

T2: huTROP-2 on CHO-K1 cells over-expressing huTROP-2 protein (human, UniProt P09758 27-323)
T2 construct: No signal peptide cleavage is stated for this form; also called CHO-K1/hTROP-2
T2 sequence: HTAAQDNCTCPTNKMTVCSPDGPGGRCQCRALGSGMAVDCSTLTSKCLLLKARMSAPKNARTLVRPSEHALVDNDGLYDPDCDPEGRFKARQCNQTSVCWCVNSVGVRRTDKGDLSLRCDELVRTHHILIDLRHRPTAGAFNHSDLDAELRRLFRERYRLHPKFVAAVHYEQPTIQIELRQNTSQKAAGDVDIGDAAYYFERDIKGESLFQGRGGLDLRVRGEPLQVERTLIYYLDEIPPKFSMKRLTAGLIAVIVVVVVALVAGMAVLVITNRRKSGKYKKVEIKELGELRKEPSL

T3: human CD79B (Homo sapiens, UniProt P40259)
T3 construct: the extracellular region (ECD) of which comprises 159 amino acids (Met1-Asp159); human Fc domain (hFc) OR His tag; made in house; host or cells: 293F cells
T3 sequence (P40259 29-159 limits assumed): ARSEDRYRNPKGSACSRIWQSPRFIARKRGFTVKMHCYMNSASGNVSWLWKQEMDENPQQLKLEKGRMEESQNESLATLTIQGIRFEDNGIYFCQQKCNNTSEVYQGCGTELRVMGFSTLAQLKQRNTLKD

T4: human CD79B (Homo sapiens, UniProt P40259)
T4 construct: endogenous in cells; host or cells: DOHH2
T4 sequence (P40259 29-229): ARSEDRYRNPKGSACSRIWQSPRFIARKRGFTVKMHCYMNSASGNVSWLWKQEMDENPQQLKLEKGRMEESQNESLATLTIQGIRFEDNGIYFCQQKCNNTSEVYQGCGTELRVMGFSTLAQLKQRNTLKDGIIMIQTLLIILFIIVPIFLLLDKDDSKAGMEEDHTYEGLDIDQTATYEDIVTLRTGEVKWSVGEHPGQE
T4 sequence (P11912 33-226 partner): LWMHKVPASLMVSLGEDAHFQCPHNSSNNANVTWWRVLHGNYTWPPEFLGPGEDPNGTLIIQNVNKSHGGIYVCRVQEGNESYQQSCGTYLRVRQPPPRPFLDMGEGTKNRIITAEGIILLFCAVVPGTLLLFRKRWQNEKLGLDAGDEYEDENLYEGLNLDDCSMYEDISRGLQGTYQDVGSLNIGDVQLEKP

B1: anti-TROP-2 antibody PD3 (antibody, human IgG1, kappa, V domains shown)
VH: EVQLVQSGSELKKPGASVKVSCKASGYTFTNYGMNWVKQAPGQGLKWMGWINTYTGEPTYTQDFKGRFAFSLDTSVSTAYLQISSLKAEDTAVYYCARGGFGSSYWYFDVWGQGTLVTVSS
VL: DIQLTQSPSSLSASVGDRVSITCKASQDVSIAVAWYQQKPGKAPKLLIYSASYRYTGVPDRFSGSGSGTDFTLTISSLQPEDFAVYYCQQHYITPLTFGAGTKVEIKR
notes: also called anti-human TROP-2 monoclonal antibody
B2: mAb015: anti-human CD79B mouse monoclonal antibody, VH SEQ ID NO: 3, VL SEQ ID NO: 4 (antibody, V domains shown)
VH: QVQLQQSGAELARPGASVKLSCKASGSSFTSYGINWVKQRTGQGLEWIGEIFPRSGNTYYNEKFEGKATLTADKSSSTAYMELRSLTSEDSAVYFCAKGDLGDFDYWGQGTTLTVSS
VL: DFLMTQTPLSLPVRLGDQASISCRSSQSIVHSDGNTYFEWYLQKPGQSPKLLIYKVSNRFSGVPDRFSGSGSGTDFTLKISRVEAEDLGVYYCFQGSHVPWTFGGGTKLEIK
B3: mAb017: anti-human CD79B mouse monoclonal antibody, VH SEQ ID NO: 5, VL SEQ ID NO: 6 (antibody, V domains shown)
VH: QVQLQQSGAELARPGASVKLSCKASGYTFTTYGINWVKQRTGQGLEWIGEIYPRSGNIYYNEKFKGKATLTADKSSSTAYMELRSLTSEDSAVYFCARGSDYDGDFAYWGQGTLVTVSA
VL: DVLMTQTPLSLPVSLGDQASISCRSSQSIVHHDGNTYLEWYLQKPGQSPKLLIYKVSNRFSGVPDRFSGSGSGTDFTLKISRVEAEDLGVYYCFQGSHVPWTFGGGTQLEIK

Legend:
[1] = test system: human diffuse large B-cell lymphoma WSU-DLCL2; assay: Test Example 3 nude mouse subcutaneous xenograft tumor efficacy
Description: Human diffuse large B-cell lymphoma WSU-DLCL2 cells were purchased from DSMZ. WSU-DLCL2 cells were cultured in a 10-cm petri dish with RPMI 1640 medium (Gibco) containing 10% fetal bovine serum, penicillin and streptomycin (GIBCO, Cat #15070-063) and incubated in an incubator at 37° C. with 5% CO2. Subculturing was carried out 2-3 times a week and cells were collected, counted and inoculated when the cells grew in long-term exponentially.
Female BALB/c-nu nude mice with a growth period of 28-35 days was purchased from Beijing Huafukang Biotechnology Co., Ltd. Production license No.: SCXK (Beijing) 2019-0008, animal certification No.: 1103221911012510. Housing environment: SPF grade.
Each nude mouse was subcutaneously inoculated with 2.0×10^7 WSU-DLCL2 cells, and after the tumor volume grew to −100 mm^3, the animals were grouped according to tumor volume (D0). The mice was administrated by intravenous injection (IV), and the administration volume was 10 mL/kg; specific dosages and schedules are shown in Table 3. The tumor volumes and body weights were measured twice a week and the results were recorded.
The experimental index is to study the influence of the drug on the tumor growth, and the specific index is T/C % or tumor growth inhibition TGI (%). Tumor diameters were measured twice weekly with a vernier caliper and tumor volume (V) was calculated according to the following formula:
where a and b represent length and width, respectively. T/C (%)=(T−T0)/(C−C0)×100, where T and C were tumor volumes at the end of the experiment; T0 and C0 were tumor volumes at the beginning of the experiment.
If the volume of tumor shrank compared with its initial volume, i.e., T<T0 or C<C0, it was defined as partial regression(PR) of tumor; if the tumor completely disappeared, it was defined as complete regression (CR) of tumor.
Unless otherwise indicated, comparison between tumor volumes of the two groups was made by two-tailed student's t-test, with P<0.05 defined as statistically significant difference.

[2] = target: T1, huTROP-2 protein (His27-Thr274 …); assay: activity verification with huTROP-2 protein His27-Thr274 (method not detailed)
[3] = target: T2, huTROP-2 on CHO-K1 cells …; assay: activity verification on CHO-K1 cells over-expressing huTROP-2 (method not detailed)
human CD79B [4] = target: T3, human CD79B; assay: ELISA assay on purified anti-human CD79B mouse monoclonal antibodies; assay type: binding
Description: (§1) 2) ELISA assay on anti-human CD79B mouse monoclonal antibodies: the 96-well plates were correspondingly labeled before experiment, and coated with 1 μg/mL antigen at 50 μL per well in a refrigerator at 4° C. overnight. The next day, the coated antigen plates from the previous day were removed and washed once with a plate washer (cleaning solution: 1×PBST). After washing, the plates were blocked with 1% BSA blocking solution prepared in 1×PBST at 37° C. for 1 h. After being washed with 1×PBST cleaning solution for 3 times, the plates were added with 50 μL of diluted antibody at 1:10 at 100 nM, and incubated in a 37° C. incubator for 1 h. After the plates were washed with 1×PBST cleaning solution for 3 times, added with 100 μL of goat anti-mouse secondary antibody diluted at 1:5000, and incubated in an incubator at 37° C. for 0.5 h. The plates were washed, the TMB color developing solution A solution and B solution in a ratio of 1:1 was taken for to color development. The color development reaction was terminated with 1 N hydrochloric acid for 15 min. Fluorescence value was read at 450 nm on a Spectra Max M5 multi-functional plate reader.

human CD79B [5] = target: T4, human CD79B; assay: FACS assay on purified anti-human CD79B mouse monoclonal antibodies (DOHH2 cells); assay type: binding
Description: (§2) 3) FACS assay on anti-human CD79B mouse monoclonal antibodies: after centrifugation, the cell suspension of DOHH2 was resuspended in PBS containing 0.1% BSA, counted, added with 100 μL of antibody diluted 1:10 at 100 nM and incubated at room temperature for 1 h. The cells were washed three times, then added with Anti-Mouse IgG (Fc specific)-FITC secondary antibody, and incubated at room temperature for 30 min in the dark. The cells were washed three times, gently resuspended in PBS containing 0.1% BSA, and then assayed using the machine.

human CD79B [6] = target: T4, human CD79B; assay: FACS of culture supernatant of anti-human CD79B hybridoma positive clones on DOHH2 cells; assay type: binding
Description: as §2, with “4)” for “3)”, “screening:” for “assay on anti-human CD79B mouse monoclonal antibodies:”, “the test cell supernatant” for “100 μL of antibody diluted 1:10 at 100 nM”, “60 min.” for “1 h.”
5) Hybridoma positive clone identification: after fusion and subclone screening of mouse splenocytes, multiple specific antibodies against human CD79B antigen were obtained, and the antibodies from the 17 strains of hybridomas having the highest binding to ELISA and FACS were produced and purified. Meanwhile, specific antibodies against monkey CD79B antigen were obtained, and the 4 strains of hybridomas having the highest binding to ELISA and FACS were taken for production and purification of antibodies. mIgG was used as negative control in the both assays.

human CD79B [7] = target: T3, human CD79B; assay: ELISA of culture supernatant of anti-human CD79B hybridoma positive clones; assay type: binding; conditions: 1 μg/mL coated antigen
Description: as §1, with “3)” for “2)”, “screening:” for “assay on anti-human CD79B mouse monoclonal antibodies:”, “cell supernatant to be detected,” for “of diluted antibody at 1:10 at 100 nM,”
5) Hybridoma positive clone identification: after fusion and subclone screening of mouse splenocytes, multiple specific antibodies against human CD79B antigen were obtained, and the antibodies from the 17 strains of hybridomas having the highest binding to ELISA and FACS were produced and purified. […]

Molecule | ELISA binding capacity (human CD79B [4]) | FACS binding capacity (human CD79B [5]) | Mean fluorescence value (human CD79B [6]) | Results (OD450) (human CD79B [7]) | other results
polatuzumab [Polivy] | – | – | – | – | Tolerability in tumor-bearing mice ([1]; 1 mg/kg IV at D0, no significant weight loss): could well tolerate; Mean tumor volume (mean ± SEM) ([1]; D0, 1 mg/kg IV at D0): 108.07 ± 1.31 mm^3; Mean tumor volume (mean ± SEM) ([1]; D17, 1 mg/kg IV at D0): 550.88 ± 52.37 mm^3; T/C % ([1]; D17, 1 mg/kg IV at D0): 63%; Tumor inhibition rate (%) ([1]; D17, 1 mg/kg IV at D0): 37%
B1 | – | – | – | – | binding result [2]: binds; binding result [3]: binds
B2 | highest ELISA binding capacity | highest FACS binding capacity | 10036 | 3.41 | –
B3 | highest ELISA binding capacity | highest FACS binding capacity | 8132 | 3.80 | –
